Reference: patent publication US20250270273A1 (NEKTAR THERAPEUTICS, published 2025)
Each block holds one molecule with its values, some of them ahead of it.

Columns and labels:
[1] = molecular target: T1, IFN-γ receptor (IFNGR; IFNGR1 and IFNGR2) on human cells (human) (UniProt P15260); test: cell-based or functional assay
T1 sequence (looked up) 1: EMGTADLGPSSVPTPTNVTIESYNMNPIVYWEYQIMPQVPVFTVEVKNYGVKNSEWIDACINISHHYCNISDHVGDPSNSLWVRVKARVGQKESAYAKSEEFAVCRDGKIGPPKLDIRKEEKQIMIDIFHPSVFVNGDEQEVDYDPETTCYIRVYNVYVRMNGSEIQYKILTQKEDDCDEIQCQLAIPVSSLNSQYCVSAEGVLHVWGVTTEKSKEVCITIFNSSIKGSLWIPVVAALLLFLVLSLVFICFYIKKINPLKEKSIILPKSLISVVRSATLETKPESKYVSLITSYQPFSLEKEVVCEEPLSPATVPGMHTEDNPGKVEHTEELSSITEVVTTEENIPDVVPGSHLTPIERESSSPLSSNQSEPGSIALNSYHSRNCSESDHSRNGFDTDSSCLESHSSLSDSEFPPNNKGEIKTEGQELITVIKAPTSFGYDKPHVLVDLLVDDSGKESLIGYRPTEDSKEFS
T1 sequence (looked up) 2: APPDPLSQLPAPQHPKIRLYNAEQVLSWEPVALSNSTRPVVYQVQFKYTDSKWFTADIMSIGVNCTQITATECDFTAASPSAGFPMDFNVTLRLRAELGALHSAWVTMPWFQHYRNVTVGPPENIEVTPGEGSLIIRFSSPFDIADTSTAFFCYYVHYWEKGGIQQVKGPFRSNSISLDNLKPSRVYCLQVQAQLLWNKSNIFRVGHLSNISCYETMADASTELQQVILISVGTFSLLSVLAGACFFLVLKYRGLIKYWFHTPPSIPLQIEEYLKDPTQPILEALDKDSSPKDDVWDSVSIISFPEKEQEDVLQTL

[2] = molecular target: T2, IFN-γ receptor (IFNGR; IFNGR1 and IFNGR2) on human cells (human, UniProt P15260 18-489; P38484 22-337); test: cell-based or functional assay
T2 sequence (looked up) 1: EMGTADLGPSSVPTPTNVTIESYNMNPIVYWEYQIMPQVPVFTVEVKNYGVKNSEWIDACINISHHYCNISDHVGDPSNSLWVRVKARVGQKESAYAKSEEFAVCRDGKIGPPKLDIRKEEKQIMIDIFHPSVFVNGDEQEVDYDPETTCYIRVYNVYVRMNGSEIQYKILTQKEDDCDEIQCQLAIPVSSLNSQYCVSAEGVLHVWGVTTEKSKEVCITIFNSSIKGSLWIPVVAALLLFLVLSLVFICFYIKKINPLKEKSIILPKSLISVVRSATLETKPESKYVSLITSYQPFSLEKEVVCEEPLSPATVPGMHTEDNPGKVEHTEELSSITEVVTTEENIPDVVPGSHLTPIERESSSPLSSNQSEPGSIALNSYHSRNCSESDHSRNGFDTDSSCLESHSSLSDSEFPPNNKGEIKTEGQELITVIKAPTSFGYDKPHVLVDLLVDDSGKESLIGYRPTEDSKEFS
T2 sequence (looked up) 2: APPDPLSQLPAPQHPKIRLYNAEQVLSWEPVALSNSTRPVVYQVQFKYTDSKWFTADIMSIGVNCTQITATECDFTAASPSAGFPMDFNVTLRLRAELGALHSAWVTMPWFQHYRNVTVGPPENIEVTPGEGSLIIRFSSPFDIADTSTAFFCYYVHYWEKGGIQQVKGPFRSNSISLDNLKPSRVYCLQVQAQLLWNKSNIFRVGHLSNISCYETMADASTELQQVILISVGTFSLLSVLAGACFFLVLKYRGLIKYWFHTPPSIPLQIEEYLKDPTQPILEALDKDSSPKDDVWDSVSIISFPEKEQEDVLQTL

[3] = molecular target: T2, IFN-γ receptor (IFNGR; IFNGR1 and …); test: cell-based or functional assay; remark: listed apart in the source
[4] = molecular target: T3, IFNγR1 fused to the constant region of the antibody IgG1 (UniProt P15260 18-245, limits assumed); test: SPR (Biacore, CM5 chip), IFNγR1-IgG1 Fc captured by anti-human IgG, analyte injected
T3 construct: also called IFNGR1; Interferon gamma receptor 1 fused to the Fc region; not shown: constant region (Fc) of IgG1, captured on the chip by an anti-human IgG antibody
T3 sequence (looked up): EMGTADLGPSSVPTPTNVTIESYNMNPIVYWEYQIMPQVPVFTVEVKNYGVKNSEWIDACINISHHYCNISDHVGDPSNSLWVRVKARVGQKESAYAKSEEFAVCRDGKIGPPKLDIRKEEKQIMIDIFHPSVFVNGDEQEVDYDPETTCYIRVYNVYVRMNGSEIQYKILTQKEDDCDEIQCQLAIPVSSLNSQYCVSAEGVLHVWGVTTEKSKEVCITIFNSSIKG
Protocol: Briefly, the surface of a BAcore™ CM5 sensor chip was coated with anti-human IgG antibody comprising IFNγR1 fused to the constant region of the antibody IgG₁.
Each of the IFN-γ-b protein, the M135C, S98C, and S66C cysteine muteins, and Compounds 1, 2, and 3 were separately injected onto the sensor chip which was coated with IFNγR1. The affinities were measured by determining the kinetic on-rate (kₒₙ) and the kinetic off-rate (koff) rates separately, and the ratio between kₒₙ and koff was used to calculate the Kd values with the results shown in Table 9.

Molecule: Compound 5, mono-mPEG2-MAL-20K-rhIFN-γ-1b-S66C (from UniProt P01579 24-162) (ligand)
- EC50 in HT-29 cells, MHCI [1]: 0.023 ng/mL
- EC50 in HT-29 cells, MHCII [1]: 0.27 ng/mL
- EC50 in HT-29 cells, PD-L1 [1]: 0.37 ng/mL
- EC50 in HT-29 cells, pSTAT1 [1]: 1.3 ng/mL

Molecule: Compound 7, ring-opened mono-mPEG2-MAL-20K-rhIFN-γ-1b-M135C (from UniProt P01579 24-162) (ligand)
- EC50 in HT-29 cells, MHCI (Compound 7 (1)) [1]: 5.3 ng/mL
- EC50 in HT-29 cells, MHCII (Compound 7 (1)) [1]: 150 ng/mL
- EC50 in HT-29 cells, PD-L1 (Compound 7 (1)) [1]: 190 ng/mL
- EC50 in HT-29 cells, pSTAT1 (Compound 7 (2)) [1]: 969 ng/mL

B1: rhIFN-γ-1b (wild-type recombinant human interferon-γ-1b) (ligand)
chain: MQDPYVKEAENLKKYFNAGHSDVADNGTLFLGILKNWKEESDRKIMQSQIVSFYFKLFKNFKDDQSIQKSVETIKEDMNVKFFNSNKKKRDDFEKLTNYSVTDLNVQRKAIHELIQVMAELSPAAKTGKRKRSQMLFRGR
notes: also called wt (rhIFN-γ-1b); WT IFN-γ-1b (Actimmune)
- EC50 in HT-29 cells, MHCI [2]: 0.079 ng/mL
- EC50 in HT-29 cells, MHCII [2]: 0.53 ng/mL
- EC50 in HT-29 cells, PD-L1 [2]: 0.69 ng/mL
- EC50 in HT-29 cells, pSTAT1 [2]: 1 ng/mL
- EC50 (ng/mL)-% pSTAT1, CD14+CD16+ (Intermediate) monocytes of human PBMCs [3]: 0.015 ng/mL
- EC50 (ng/mL)-% pSTAT1, CD14+CD16- (Classical) monocytes of human PBMCs [3]: 0.035 ng/mL
- EC50 (ng/mL)-% pSTAT1, CD14loCD16hi (Non-classical) monocytes of human PBMCs [3]: 0.018 ng/mL
- EC50 (ng/mL)-MFI of pSTAT1, Classical monocytes of human PBMCs [3]: 0.3 ng/mL
- EC50 (ng/mL)-MFI of pSTAT1, Intermediate monocytes of human PBMCs [3]: 0.24 ng/mL
- EC50 (ng/mL)-MFI of pSTAT1, Non-classical monocytes of human PBMCs [3]: 0.26 ng/mL
- Kd [4]: 0.0655 nM
- koff [4]: 0.000701 s⁻¹
- kon [4]: 1.07e+07 M⁻¹ s⁻¹

Second part, the molecule after the results:

- EC50 in HT-29 cells, MHCI [1]: 0.047 ng/mL
- EC50 in HT-29 cells, MHCII [1]: 0.86 ng/mL
- EC50 in HT-29 cells, PD-L1 [1]: 1.3 ng/mL
- EC50 in HT-29 cells, pSTAT1 [1]: 1.2 ng/mL
Molecule: Compound 6, mono-mPEG2-MAL-20K-rhIFN-γ-1b-N98C (from UniProt P01579 24-162) (ligand)

- EC50 (ng/mL)-% pSTAT1, CD14+CD16+ (Intermediate) monocytes of human PBMCs [1]: 10.1 ng/mL
- EC50 (ng/mL)-% pSTAT1, CD14+CD16- (Classical) monocytes of human PBMCs [1]: 32.6 ng/mL
- EC50 (ng/mL)-% pSTAT1, CD14loCD16hi (Non-classical) monocytes of human PBMCs [1]: 11.7 ng/mL
- EC50 (ng/mL)-MFI of pSTAT1, Classical monocytes of human PBMCs [1]: 152 ng/mL
- EC50 (ng/mL)-MFI of pSTAT1, Intermediate monocytes of human PBMCs [1]: 84.2 ng/mL
- EC50 (ng/mL)-MFI of pSTAT1, Non-classical monocytes of human PBMCs [1]: 97.5 ng/mL
- EC50 in HT-29 cells, MHCI [1]: 0.3 ng/mL
- EC50 in HT-29 cells, MHCII [1]: 3.1 ng/mL
- EC50 in HT-29 cells, PD-L1 [1]: 3.6 ng/mL
- EC50 in HT-29 cells, pSTAT1 [1]: 180 ng/mL
Molecule: Compound 4, mono-mPEG2-MAL-40K-rhIFN-γ-1b-M135C (from UniProt P01579 24-162) (ligand)
